Experiment [1] concerns the target T1, PHCP (Hydrogenophilus thermoluteolus cytochrome c') (Hydrogenophilus thermoluteolus, UniProt F7J213).
T1 construct: gene cytc; mature protein, N-terminal DALKP; authentic protein from H. thermoluteolus cells for crystal
T1 sequence (F7J213 20-154): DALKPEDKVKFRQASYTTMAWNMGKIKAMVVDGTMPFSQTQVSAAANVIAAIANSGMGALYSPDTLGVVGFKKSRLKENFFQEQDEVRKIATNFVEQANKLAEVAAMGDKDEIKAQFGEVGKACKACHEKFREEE
The experiment is described as follows: visible absorption spectroscopy. The conditions noted are these: reduced (dithionite) protein 6 uM; 0.5% (v/v) ligand; 10 mM potassium phosphate pH 7.0; 25 C; isomer of butyl group not stated. The experiment is classed as binding.

The target of experiment [2] is PHCP A20G variant (Hydrogenophilus thermoluteolus). Briefly: AUC; sedimentation velocity of the single variants, data not shown; the same analysis as for the wild-type.
Experiment [3] addresses PHCP F11T variant (Hydrogenophilus thermoluteolus). Described as above.
Experiment [4] concerns the target PHCP F11T/T18F/F71D triple variant (Hydrogenophilus thermoluteolus). The experiment is described as follows: AUC; sedimentation velocity, 5 μM protein, 10 mM Tris-HCl (pH 7.5) with 100 mM NaCl, 20°C, 42,000 rpm, c(s) model in SEDFIT; n = 1.
For experiment [5], the target named is PHCP F71D variant (Hydrogenophilus thermoluteolus). Briefly: AUC; sedimentation velocity of the single variants, data not shown; the same analysis as for the wild-type.
For experiment [6], the target named is PHCP L76V variant (Hydrogenophilus thermoluteolus). The experiment is described as above.
The target of experiment [7] is PHCP T17E variant (Hydrogenophilus thermoluteolus). Described as above.
For experiment [8], the target named is PHCP T17E/A20G/L76V triple variant (Hydrogenophilus thermoluteolus). Briefly: AUC; sedimentation velocity, 5 μM protein, 10 mM Tris-HCl (pH 7.5) with 100 mM NaCl, 20°C, 42,000 rpm, c(s) model in SEDFIT; n = 1.
The target of experiment [9] is PHCP T18F variant (Hydrogenophilus thermoluteolus). Briefly: AUC; sedimentation velocity of the single variants, data not shown; the same analysis as for the wild-type.
In experiment [10] the target is recombinant PHCP wild-type (Hydrogenophilus thermoluteolus). Briefly: AUC; sedimentation velocity, 5 μM protein, 10 mM Tris-HCl (pH 7.5) with 100 mM NaCl, 20°C, 42,000 rpm, c(s) model in SEDFIT; n = 1.

In the case of `[C-]#[N+]CCCC` [butyl-isocyanide], the visible absorption spectroscopy entry in experiment [1] is “PHCP is able to bind CO, NO, and large ligands such as butyl‐isocyanide and imidazole”.
As a reminder, the stoichiometry N is the number of molecules, sites or subunits per partner or assembly. As for PHCP A20G variant (natural protein), in experiment [2], the stoichiometry N was determined as 2.
Turning to PHCP F11T variant (natural protein), the stoichiometry N in [3] was determined as 2.
For the molecule “PHCP F11T/T18F/F71D triple variant (natural protein)”, in [4], the population of the dimer species worked out at 97.7% and the stoichiometry N turned out to be 2.
Consider PHCP F71D variant (natural protein), for which the stoichiometry N in [5] is 2.
Turning to PHCP L76V variant (natural protein), the stoichiometry N in experiment [6] is 2.
PHCP T17E variant (natural protein) showed a stoichiometry N in experiment [7] of 2.
Regarding “PHCP T17E/A20G/L76V triple variant (natural protein)”, in experiment [8], the population of the dimer species is 91.1% and the stoichiometry N came out at 2.
In [9], PHCP T18F variant (natural protein) displayed a stoichiometry N of 2.
Take “recombinant PHCP wild-type (natural protein)”: in experiment [10], the population of the dimer species amounted to 99.9% and the stoichiometry N stood at 2.
